From the supplement of paper PMC12042874
± gives the uncertainty stated by the source.

Experiment: amyloid nucleation score (Sup35N fusion, yeast selection) (log enrichment); library NNK1; higher = more nucleation; inactive = no reads after selection
Procedure, shortened: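 Nucleation score: DiMSum log enrichment of output over input reads, centred on the mode score of non-aggregating sequences. Only sequences with at least 100 input reads were kept. Reads came from Illumina sequencing of plasmid inserts before and after 7 days of growth at 30°C without adenine and uracil, in psi-negative yeast expressing Sup35N fused to peptides of 20 random codons after 24 hours of induction with 100 μM copper sulfate.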

Substance | amyloid nucleation score
WIVSFMAIRH | 1.51 ± 0.25
PYAWSVNC | -0.579 ± 0.4
YTCCWTVG | 4.18 ± 0.08
VNSFCR | 0.587 ± 1.1
AHRDWFS | -0.553 ± 1.1
DYLVQGLHILVKWGYDRTDG | -0.187 ± 0.5
HLLWETSMQRLMSHIFTSSR | 0.022 ± 0.43
WIKLRLGFKRSFIPECGFLG | -0.208 ± 0.54
NFAWYNSTQFITTCRVTYSE | 1.86 ± 0.17
LYRYEYDCNSLSMS | 2.73 ± 0.078
TYDLPTYIILVSPQYLCANT | -0.06 ± 0.27
ATQSVFSKWVGGIRWWCVLL | -0.65 ± 0.88
AIPRSVITRFLSCLAIEAWQ | 0.627 ± 0.41
YPSVADRHAILHR | 0.219 ± 0.74
RGVCSRDVWARLVELTAEMG | 0.459 ± 0.93
EKMHQSYLSRYYIDR | 1.12 ± 0.54
NKGKIESMCSSAH | 4.7 ± 0.099
HDSTGHGEYVVGPEPFFPCA | 0.024 ± 0.4
ETSVRMVFFVKRLTGYMNLR | -0.277 ± 0.33
KYMTDIIT | 0.413 ± 0.2
EERRMSWWFERGCKLAVELS | -0.614 ± 0.8
MNGSNRSCLFFCIGCVMPAW | 7.5 ± 0.081
MLSYQR | inactive
PCSSFVNCKIMFLTLMDVVW | 7.739 ± 0.056
SLMVSRGDTCG | -0.181 ± 0.35

Substance | amyloid nucleation score
LFPSTTMLLFRLNQGGFDEI | 0.407 ± 0.58
TGMGGV | 0.177 ± 1.2
RPFSDLSWTLDRVWHRPCWY | 1.04 ± 0.6
NNMLAWWVSLTSSQT | 0.512 ± 0.39
NMRTNQDKSCGCCQLPVQAG | -0.119 ± 1.2
DIMKSSKAHELVQSLPIEKR | 0.248 ± 0.64
IGGPYLVGSHKLKLWPWLES | -0.575 ± 0.34
ESKVSGIVIFGGVEIAFYRG | 5.22 ± 0.1
WYKSYVITFITDTLVVDRET | 2.41 ± 0.16
VSWECSIVNAYMQPATCDII | 4.88 ± 0.1
VSHSGCKSF | -0.434 ± 0.47
MHWLDYSFELLDGQ | 1.01 ± 0.75
VSCQHTVFKVICSYLPHLCK | 0.666 ± 0.59
AFYNCYSGNYFNYIFIYRCT | 7.283 ± 0.053
FCWVGQNEWCRHLFELCLER | 0.517 ± 0.63
AFYIRIGVHFPQ | -0.525 ± 1.1
FLALR | -0.249 ± 0.61
LSGCEGVPLNLMYLDSKMSR | -0.106 ± 0.74
SNCGWRIFKEM | -1.35 ± 2.1
KVDLLA | -0.13 ± 0.56
NVMNVIGGENWVSGFDCMGR | inactive
VNLGVRAGGLCRHAEKGDMT | -0.364 ± 0.53
DSNPNFCRLIKYVRNDCRTP | 0.012 ± 0.26
GPSRNGWFNATLGHTLLSNT | 0.638 ± 0.42
ATTALAMGGSNDTMGYGVRC | 0.006 ± 0.4

Substance | amyloid nucleation score
KWVDEECFDFMKGGF | -0.756 ± 0.73
LKCLLKHGFTRNG | -2.08 ± 2.7
NGYFGAEDFLIVWIALRKKW | 0.5 ± 0.9
VDPGDVVFLLRPRSEHWGVG | 2.12 ± 0.18
RIKRILFFYSVRIWDLSDG | 2.52 ± 0.12
MLKILNSSFFDTIVYAYITC | 3.6 ± 0.081
YFQTRSAKRVCSNQIHVLRW | 3.08 ± 0.12
DHTHLTTQNDICLMVSFTVE | 2.7 ± 0.096
TMVVNLARRAPPVLPSGRMT | 0.71 ± 0.74
KLFLLGAINGQFI | 4.87 ± 0.066
YGYAAYVDMRSGL | -0.257 ± 0.33
CGFKLVVVCFMK | 3.47 ± 0.2
NTQFHCDDFQLVHDIQ | 0.214 ± 0.38
LRFHEGVLGAMFEGSVCVLE | -0.01 ± 1.5
NWSRPSSNLGGGPSSAVREG | 0.764 ± 0.52
QYTAHMLCLALLYRFEWNEN | 2.24 ± 0.27
SVFNGYQSLVICFLRVSACC | 0.154 ± 1
PLYLW | inactive
MKFGGLSG | -0.171 ± 0.47
YELDWWSLLQE | 1.12 ± 0.4
SLQTTWLKNLGDLSSSREAS | -0.121 ± 0.73
SIVMGSVMTFGFDIFL | 4.47 ± 0.066
RCINGNIYNKSW | 0.18 ± 0.26
ITYKLFVISCNEKRNLICHN | -0.477 ± 0.32
NHFLYLFVRYYTRLAEHVYA | -0.08 ± 0.56

Substance | amyloid nucleation score
VRSGRSDATAAKYFLHLTWY | -0.465 ± 0.89
LFRLYTEITGRMRVTKVKVV | 0.641 ± 0.69
YILSFFCVVEARDFFVDFEM | 5 ± 0.062
NNKCWNIVRLVHRSLTLTRH | inactive
AVGSDWDVYWVPRRMRMMCS | -1.84 ± 2.7
RAGTLLPVLLDKVKRCSKLW | 0.222 ± 0.7
GGVVCRVKGKNRFPLVSWQF | -0.565 ± 0.61
LFRFDYCLPGRFNRFWPDIS | 1.03 ± 0.18
CMAHIYCWDICYNERWGFYI | 4.11 ± 0.052
VRYVNRLKAHALDPKLKTL | -0.18 ± 0.62
CESQMSRVDVLSCYMYGSVM | 0.303 ± 0.4
SIMGVDRLVVVWYGFDRCGF | 1.31 ± 0.66
DFSYYLWGMSV | -0.991 ± 2.4
LRTRDQSGFSAVIYSKNPRA | 0.106 ± 0.51
AISLVAVRFMGMGEGVSDKN | 5.33 ± 0.1
DLDVFYCWGAYLAEGDLVCE | 0.146 ± 0.41
DVKFVVFSNRAWVCTSASKW | 4.01 ± 0.11
YSNRWNYWVYVFGQVF | -0.437 ± 0.42
LAVKEL | 0.678 ± 0.54
NIQSDRVHIFNELVRFSRWK | 0.829 ± 0.97
GRLGITSMMPLGCVINWPRG | 3.02 ± 0.13
SMTRIANSMINVFGENPSNS | -0.267 ± 0.69
RLYLDMSIRPSWASVRFSFG | -1.19 ± 1.9
YLPYVNLAG | -1.07 ± 2.4
LIMILGIRDHLTNCGGKVLQ | 2.03 ± 0.3

Substance | amyloid nucleation score
THYYCVLTGKITRRVLYILL | -1.13 ± 0.67
KDICY | 0.864 ± 0.51
HAGLQRALTPQIRLFSGLAS | -0.268 ± 1.4
IGSNK | -1.38 ± 0.86
NLTCSLMVCRWFPIPVL | 0.171 ± 0.38
SLVFQDRRYLTAFLGFVLWL | -0.476 ± 0.51
RCDNLF | 0.037 ± 0.39
SGSNEWSRENLIGVFVVPGQ | -0.21 ± 1.1
PITFS | 0.448 ± 0.68
KLALRKGSRDVH | 0.661 ± 0.97
LSAFNWQGDVNLRECYNVY | -0.337 ± 0.63
SSEDYALVLRSSGALVCSCL | 0.418 ± 1
INGFYCCRV | 0.787 ± 0.21
YVLSLYTNGRSPSA | 0.203 ± 0.56
TVRVVDLGQVVGSGVMASMP | 1.23 ± 0.17
NVGQPRNVVDSIQ | 0.67 ± 0.23
SLSLDSNEKRKRICFW | 1.36 ± 0.29
IYMCIGWQ | 7.268 ± 0.044
TRYTKKWQVLTDWSVGYTGT | -0.443 ± 0.41
LGSEAS | 0.093 ± 0.2
SVFRSSVCLLANDGVFSMNV | 0.355 ± 0.39
CWVETLTICACLTFTFFFWN | 2.48 ± 0.14
CNVEAG | -1.55 ± 1.1
QSSLMLYDERRSNWIKHLAT | -0.232 ± 0.37
MNKLYITA | 0.035 ± 0.84

Substance | amyloid nucleation score
LGGAWLSNEDMVGYKNLH | 1.44 ± 0.41
GIYGQWTQ | 0.697 ± 0.85
RGSPFGVSM | 5.4 ± 0.091
LVLMWLLSGYGAHHFYYAK | 0 ± 1.2
NCCCEAKTWRLIDCIITIVI | 0.711 ± 0.13
AKRLFRRSTLMTSNTGLAVL | 0.287 ± 1.4
LIKSMDFLGRM | 0.117 ± 0.69
RNLCTWVNRKELLSSEYLLF | -0.249 ± 0.31
YLIRHIENGCSTQCRSTSWV | inactive
CNGAGNLEGDGF | 0.317 ± 0.33
LLWDCVNLEGIEQFYCPHSD | 0.382 ± 0.44
LKDRGYQKYFNSGLIGCNAS | -0.096 ± 0.47
MISGPNFEVYRLAVINGRSW | 0.848 ± 0.58
TYLAVGLMHYEWRGDSVSTD | -0.603 ± 0.32
ARIMFVPWSLNDLWLGRFSM | -0.263 ± 0.45
SFLSCRWLVFRLMKLRYICA | 0.444 ± 1.4
GTTFIRLIYFVYMARTTTEF | -1.35 ± 1.1
ASDMSCMQSNSYFNLCTYTM | 5.28 ± 0.064
VGSGSDQQYALMSNLYSKLS | 1.02 ± 0.7
GACGGKFRVYGKGLILWVRS | 0.253 ± 0.37
IGYCSSGQNDPNIASLYCFH | -1.19 ± 0.81
TSYIQW | -0.359 ± 0.29
VARSHYMCI | 0.132 ± 0.38
RFSGVFSDQLVLSD | -0.713 ± 0.68
NYGFAIPFA | 0.323 ± 0.31

Substance | amyloid nucleation score
LSMKSHFWKMMFTGNWSYVC | inactive
PVDNYFIMTTHDKLNRPGHD | -1.85 ± 1
VLFFKVIIYVALRMVLMEKD | -1.18 ± 1
TLTYPMCGSIG | 1.09 ± 0.47
AGAWIVDVTGKSMERYVGNK | 0.133 ± 0.61
RSQSCLVYYWTRFRPVYRFA | 0.671 ± 0.29
GVDLVSAIYGTSGHTVWMAF | -0.054 ± 0.52
VRLVVQWEKVKDCLIVWD | 1.85 ± 0.12
NLICNLVDNQFPVWQLLRIW | 2.3 ± 0.17
MHEGKRLITGIDWWYVGVCW | 0.094 ± 0.9
HDLTWVSTSESFFSLMGHAS | -0.28 ± 0.29
KLPRTCAPLYHMLTHGVGHR | -0.075 ± 0.72
LKICLIGTNCMSNV | -0.234 ± 0.78
RNKNFPSKGDLNQGGRNNIK | 0.877 ± 0.4
CITANMDENLVSRIRWASEY | 0.462 ± 0.79
GAYCFSVCNHREL | -0.365 ± 1.1
PILSNLHIPMCPENVNGRGS | 0.939 ± 0.33
YFSQPMLLRSSGRAVNSRMR | -1.66 ± 2.4
RNGSSMGPLSM | -0.258 ± 0.71
VFGKITSWWFRTIDFWERRI | -0.428 ± 0.64
LCGGWLMGAGRFDGR | 0.862 ± 0.54
CWIFQDCCQKDCMLFLPCCK | 0.554 ± 0.26
